Biological target: Clone 16 (Clone 6-KiH-Clone 2) bispecific antibody (mouse | human) [IgG part: P01857]
Test: SPR
Conditions: domain or fragment

SARS-CoV-2 spike receptor binding domain (RBD) protein with a C-terminal hexahistidine tag (from UniProt P0DTC2 319-541)
Kd: 2.95 nM
koff: 0.00461 s⁻¹

From paper PMC8960874
